For the experiment, the target named is T1, C-terminally 6x Histidine-tagged Beta-Catenin (aa 134-668, 59 KD) (UniProt P35222 134-668).
T1 construct: range 134-668; Armadillo repeat region
T1 sequence: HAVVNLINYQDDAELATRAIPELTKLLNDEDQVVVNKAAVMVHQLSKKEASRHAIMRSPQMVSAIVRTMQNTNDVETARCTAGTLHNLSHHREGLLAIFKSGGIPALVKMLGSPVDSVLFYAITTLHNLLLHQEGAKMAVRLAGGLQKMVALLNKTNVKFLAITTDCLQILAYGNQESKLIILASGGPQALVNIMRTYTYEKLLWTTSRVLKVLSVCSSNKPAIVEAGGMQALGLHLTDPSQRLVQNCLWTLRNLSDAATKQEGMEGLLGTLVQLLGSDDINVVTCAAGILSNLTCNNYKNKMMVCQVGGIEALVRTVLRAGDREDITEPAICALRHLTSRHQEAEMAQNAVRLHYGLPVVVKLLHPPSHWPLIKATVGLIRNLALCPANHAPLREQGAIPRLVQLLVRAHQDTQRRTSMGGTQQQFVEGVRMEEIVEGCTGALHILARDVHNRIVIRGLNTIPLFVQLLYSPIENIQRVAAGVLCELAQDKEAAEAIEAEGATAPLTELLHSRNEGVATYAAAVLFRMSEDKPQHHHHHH
The experiment is described as follows: competitive fluorescence polarization, FAM-labelled linear probe as competitor, His-tagged beta-catenin 134-668. The procedure:
The following experiments are performed at room temperature unless otherwise noted. First, an assay buffer is prepared composed of 25 mM Tris-Hcl pH 7.5, 200 mM Sodium Chloride, and 5 mM CHAPS. Next, 1M DTT is added to assay buffer to a final concentration of 2 mM. […] Forty μl of this protein stock is added to all but six wells of a 96 well plate (which will serve as the free peptide and Blank). Test competitor peptides are diluted from 1 mM DMSO stocks to 2× working stocks in assay buffer. Further dilutions are made in assay buffer-DMSO as to maintain a constant DMSO concentration in all wells. The dilution is carried out such that the peptides have a working concentration range of 40 μM-0.7 μM (2×). As a benchmark, a linear, non-crosslinked peptide competitor is prepared as above but with a working concentration range of 13-0.7 μM. Fifty μl of the competitor 2× stocks are added to the 40 μl of protein solution previously transferred into the assay 96 well plate. Next, a 10× stock of the fluorescent probe is prepared. The probe is identical to the linear benchmark peptide except for the n-terminal conjugation of a FAM flourophore with Beta-Alanine spacer. A 1 mM DMSO stock of the probe is serially diluted to a final concentration of 25 nM (10×) and 10 μl of this stock is added to all wells except for those that will serve as the blank. The assay plate is stored in the dark and the reaction is allowed to run at room temperature for three hours. The reaction is then read on a Biotek Synergy 2 with the following settings: 100 ms delay, 40 measurements per well, with excitation filters of […], and emission filters of […]. Data is then analyzed in Graphpad Prism.

Bridges are numbered along the chain shown (N, C = ends). [ ]: non-standard residue; d: D form. S5 = C=CCCC[C@](C)(N)C(=O)O; Nle = CCCC[C@H](N)C(=O)O

B1: SP11 (peptide)
peptide: Ac-SAERDLA[S5]VKS[S5]LVNESEKR-NH2
modifications: staple 8-12
SMILES: CC(=O)N[C@@H](CO)C(=O)N[C@@H](C)C(=O)N[C@@H](CCC(=O)O)C(=O)N[C@@H](CCCNC(=N)N)C(=O)N[C@@H](CC(=O)O)C(=O)N[C@@H](CC(C)C)C(=O)N[C@@H](C)C(=O)N[C@@]1(C)CCCC=CCCC[C@@](C)(C(=O)N[C@@H](CC(C)C)C(=O)N[C@H](C(=O)N[C@@H](CC(N)=O)C(=O)N[C@@H](CCC(=O)O)C(=O)N[C@@H](CO)C(=O)N[C@@H](CCC(=O)O)C(=O)N[C@@H](CCCCN)C(=O)N[C@@H](CCCNC(=N)N)C(N)=O)C(C)C)NC(=O)[C@H](CO)NC(=O)[C@H](CCCCN)NC(=O)[C@H](C(C)C)NC1=O
With B1, the IC50 is at least 100 µM.

B2: SP34 (peptide)
peptide: Ac-RDLANVK[S5]S[Nle]V[S5]ES-NH2
modifications: staple 8-12
SMILES: CCCC[C@@H]1NC(=O)[C@H](CO)NC(=O)[C@@](C)(NC(=O)[C@H](CCCCN)NC(=O)[C@@H](NC(=O)[C@H](CC(N)=O)NC(=O)[C@H](C)NC(=O)[C@H](CC(C)C)NC(=O)[C@H](CC(=O)O)NC(=O)[C@H](CCCNC(=N)N)NC(C)=O)C(C)C)CCCC=CCCC[C@@](C)(C(=O)N[C@@H](CCC(=O)O)C(=O)N[C@@H](CO)C(N)=O)NC(=O)[C@H](C(C)C)NC1=O
notes: also called Ac-RDLANVK$SNleV$ES-NH2
On to B2, for which the half-inhibitory concentration (IC50) was at least 100 µM.

B3: SP2 (peptide)
peptide: Ac-RDLADVK[S5]SLV[S5]ES-NH2
modifications: staple 8-12
SMILES: CC(=O)N[C@@H](CCCNC(=N)N)C(=O)N[C@@H](CC(=O)O)C(=O)N[C@@H](CC(C)C)C(=O)N[C@@H](C)C(=O)N[C@@H](CC(=O)O)C(=O)N[C@H](C(=O)N[C@@H](CCCCN)C(=O)N[C@@]1(C)CCCC=CCCC[C@@](C)(C(=O)N[C@@H](CCC(=O)O)C(=O)N[C@@H](CO)C(N)=O)NC(=O)[C@H](C(C)C)NC(=O)[C@H](CC(C)C)NC(=O)[C@H](CO)NC1=O)C(C)C
notes: also called Ac-RDLADVK$SLV$ES-NH2
With B3, the IC50 was at least 100 µM.

B4: SP33 (peptide)
peptide: Ac-RDLANVV[S5]SLV[S5]ES-NH2
modifications: staple 8-12
SMILES: CC(=O)N[C@@H](CCCNC(=N)N)C(=O)N[C@@H](CC(=O)O)C(=O)N[C@@H](CC(C)C)C(=O)N[C@@H](C)C(=O)N[C@@H](CC(N)=O)C(=O)N[C@H](C(=O)N[C@H](C(=O)N[C@@]1(C)CCCC=CCCC[C@@](C)(C(=O)N[C@@H](CCC(=O)O)C(=O)N[C@@H](CO)C(N)=O)NC(=O)[C@H](C(C)C)NC(=O)[C@H](CC(C)C)NC(=O)[C@H](CO)NC1=O)C(C)C)C(C)C
notes: also called Ac-RDLANVV$SLV$ES-NH2
B4: the IC50 is at least 100 µM.

B5: SP4 (peptide)
peptide: Ac-RNLADVK[S5]SLV[S5]ES-NH2
modifications: staple 8-12
SMILES: CC(=O)N[C@@H](CCCNC(=N)N)C(=O)N[C@@H](CC(N)=O)C(=O)N[C@@H](CC(C)C)C(=O)N[C@@H](C)C(=O)N[C@@H](CC(=O)O)C(=O)N[C@H](C(=O)N[C@@H](CCCCN)C(=O)N[C@@]1(C)CCCC=CCCC[C@@](C)(C(=O)N[C@@H](CCC(=O)O)C(=O)N[C@@H](CO)C(N)=O)NC(=O)[C@H](C(C)C)NC(=O)[C@H](CC(C)C)NC(=O)[C@H](CO)NC1=O)C(C)C
notes: also called Ac-RNLADVK$SLV$ES-NH2
Regarding B5, the IC50 is at least 100 µM.

B6: SP32 (peptide)
peptide: Ac-RDLANVI[S5]SLV[S5]ES-NH2
modifications: staple 8-12
SMILES: CC[C@H](C)[C@H](NC(=O)[C@@H](NC(=O)[C@H](CC(N)=O)NC(=O)[C@H](C)NC(=O)[C@H](CC(C)C)NC(=O)[C@H](CC(=O)O)NC(=O)[C@H](CCCNC(=N)N)NC(C)=O)C(C)C)C(=O)N[C@@]1(C)CCCC=CCCC[C@@](C)(C(=O)N[C@@H](CCC(=O)O)C(=O)N[C@@H](CO)C(N)=O)NC(=O)[C@H](C(C)C)NC(=O)[C@H](CC(C)C)NC(=O)[C@H](CO)NC1=O
notes: also called Ac-RDLANVI$SLV$ES-NH2
For the molecule B6, the IC50 was at least 100 µM.

B7: SP35 (peptide)
peptide: Ac-RGLANVK[S5]SLV[S5]ES-NH2
modifications: staple 8-12
SMILES: CC(=O)N[C@@H](CCCNC(=N)N)C(=O)NCC(=O)N[C@@H](CC(C)C)C(=O)N[C@@H](C)C(=O)N[C@@H](CC(N)=O)C(=O)N[C@H](C(=O)N[C@@H](CCCCN)C(=O)N[C@@]1(C)CCCC=CCCC[C@@](C)(C(=O)N[C@@H](CCC(=O)O)C(=O)N[C@@H](CO)C(N)=O)NC(=O)[C@H](C(C)C)NC(=O)[C@H](CC(C)C)NC(=O)[C@H](CO)NC1=O)C(C)C
notes: also called Ac-RGLANVK$SLV$ES-NH2
As to B7, the IC50 is at least 100 µM.

B8: SP9 (peptide)
peptide: Ac-RDL[S5]NVK[S5]SLVNES-NH2
modifications: staple 4-8
SMILES: CC(=O)N[C@@H](CCCNC(=N)N)C(=O)N[C@@H](CC(=O)O)C(=O)N[C@@H](CC(C)C)C(=O)N[C@@]1(C)CCCC=CCCC[C@@](C)(C(=O)N[C@@H](CO)C(=O)N[C@@H](CC(C)C)C(=O)N[C@H](C(=O)N[C@@H](CC(N)=O)C(=O)N[C@@H](CCC(=O)O)C(=O)N[C@@H](CO)C(N)=O)C(C)C)NC(=O)[C@H](CCCCN)NC(=O)[C@H](C(C)C)NC(=O)[C@H](CC(N)=O)NC1=O
notes: also called Ac-RDL$NVK$SLVNES-NH2
Regarding B8, the IC50 was at least 100 µM.

B9: SP10 (peptide)
peptide: Ac-SAERDL[S5]DVK[S5]SLVNESEKR-NH2
modifications: staple 7-11
SMILES: CC(=O)N[C@@H](CO)C(=O)N[C@@H](C)C(=O)N[C@@H](CCC(=O)O)C(=O)N[C@@H](CCCNC(=N)N)C(=O)N[C@@H](CC(=O)O)C(=O)N[C@@H](CC(C)C)C(=O)N[C@@]1(C)CCCC=CCCC[C@@](C)(C(=O)N[C@@H](CO)C(=O)N[C@@H](CC(C)C)C(=O)N[C@H](C(=O)N[C@@H](CC(N)=O)C(=O)N[C@@H](CCC(=O)O)C(=O)N[C@@H](CO)C(=O)N[C@@H](CCC(=O)O)C(=O)N[C@@H](CCCCN)C(=O)N[C@@H](CCCNC(=N)N)C(N)=O)C(C)C)NC(=O)[C@H](CCCCN)NC(=O)[C@H](C(C)C)NC(=O)[C@H](CC(=O)O)NC1=O
Consider B9, for which the half-maximal inhibitory concentration (IC50) was at least 100 µM.

B10: SP22 (peptide)
peptide: Ac-SA[S5]RDL[S5]DVKSSLVNESEKR-NH2
modifications: staple 3-7
SMILES: CC(=O)N[C@@H](CO)C(=O)N[C@@H](C)C(=O)N[C@@]1(C)CCCC=CCCC[C@@](C)(C(=O)N[C@@H](CC(=O)O)C(=O)N[C@H](C(=O)N[C@@H](CCCCN)C(=O)N[C@@H](CO)C(=O)N[C@@H](CO)C(=O)N[C@@H](CC(C)C)C(=O)N[C@H](C(=O)N[C@@H](CC(N)=O)C(=O)N[C@@H](CCC(=O)O)C(=O)N[C@@H](CO)C(=O)N[C@@H](CCC(=O)O)C(=O)N[C@@H](CCCCN)C(=O)N[C@@H](CCCNC(=N)N)C(N)=O)C(C)C)C(C)C)NC(=O)[C@H](CC(C)C)NC(=O)[C@H](CC(=O)O)NC(=O)[C@H](CCCNC(=N)N)NC1=O
For B10, the concentration for half-maximal inhibition (IC50) was at least 100 µM.

B11: SP12 (peptide)
peptide: Ac-SAERDLADVK[S5]SLV[S5]ESEKR-NH2
modifications: staple 11-15
SMILES: CC(=O)N[C@@H](CO)C(=O)N[C@@H](C)C(=O)N[C@@H](CCC(=O)O)C(=O)N[C@@H](CCCNC(=N)N)C(=O)N[C@@H](CC(=O)O)C(=O)N[C@@H](CC(C)C)C(=O)N[C@@H](C)C(=O)N[C@@H](CC(=O)O)C(=O)N[C@H](C(=O)N[C@@H](CCCCN)C(=O)N[C@@]1(C)CCCC=CCCC[C@@](C)(C(=O)N[C@@H](CCC(=O)O)C(=O)N[C@@H](CO)C(=O)N[C@@H](CCC(=O)O)C(=O)N[C@@H](CCCCN)C(=O)N[C@@H](CCCNC(=N)N)C(N)=O)NC(=O)[C@H](C(C)C)NC(=O)[C@H](CC(C)C)NC(=O)[C@H](CO)NC1=O)C(C)C
On to B11, for which the half-inhibitory concentration (IC50) came to 85 µM.

Source of the values: patent US20170266254A1 (AILERON THERAPEUTICS, published 2017).
